Reference: the supplement of paper PMC9732359
± gives the uncertainty stated by the source.

Assay: protein stability index of a GFP-peptide fusion (yeast GPS) (PSI 1-4); higher = more stable; sorted into four equal gates, so the index is relative within each strain
Summary of the method: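 For each peptide, the protein stability index sums the read frequency in every gate after multiplying it by the gate number. Read frequencies came from plasmids that were PCR-amplified from each gate and Illumina-sequenced, with reads assigned to strains by barcodes. The gates were four equal bins of GFP/Cherry fluorescence ratio applied to mid-log yeast in leucine-free medium carrying a pooled library of tiled 17-residue yeast protein peptides fused downstream of GFP on a Cherry-expressing plasmid.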

Sequence | protein stability index (doa10∆) | protein stability index (pdr5∆) | protein stability index (san1∆) | protein stability index (ubr1∆)
KVDATPEESKPINLQNG [YLR335W/NUP2] | 2.9 ± 0.088 | 2.95 ± 0.079 | 2.8 ± 0.06 | 3.21 ± 0.049
KVDSPDDPFMTKSGATT [GAL11] | 2.51 ± 0.077 | 2.63 ± 0.071 | 2.59 ± 0.055 | 2.79 ± 0.045
KVFDCGDNIVMSANGFA [PRE7] | 2.88 ± 0.24 | 2.92 ± 0.12 | 2.88 ± 0.11 | 2.97 ± 0.15
KVFVPPKSKSLPNEMSQ [RPO31] | 3.1 ± 0.13 | 3.14 ± 0.12 | 3.09 ± 0.16 | 2.87 ± 0.13
KVGAEMMMQQQLKNVQL [MED2] | 2.54 ± 0.11 | 2.6 ± 0.085 | 2.96 ± 0.07 | 2.66 ± 0.085
KVGIWPYFDYIFNDILA [YJL039C/NUP192] | 1.67 ± 0.11 | 1.96 ± 0.071 | 1.75 ± 0.17 | 1.43 ± 0.061
KVKKPLKYLSVEEVIKL [PRE7] | 2.54 ± 0.084 | 2.63 ± 0.054 | 2.75 ± 0.083 | 2.23 ± 0.067
KVLINDQLSTISMILRN [SWI1] | 2.28 ± 0.047 | 2.79 ± 0.062 | 2.17 ± 0.07 | 2.68 ± 0.042
KVLKSGSGVDSSKLQLT [RRP42] | 2.94 ± 0.14 | 2.94 ± 0.1 | 3.16 ± 0.074 | 3.29 ± 0.1
KVLQLLRLTRINSGTFV [RPL7A] | 1.8 ± 0.097 | 1.62 ± 0.093 | 1.2 ± 0.17 | 1.07 ± 0.065
KVSAREKSAYKFFHNGM [FAS2] | 3.5 ± 0.14 | 3.39 ± 0.14 | 3.35 ± 0.099 | 3.54 ± 0.13
KVSSAEYYAKKRAFTKK [RPL16A] | 3 ± 0.098 | 3.32 ± 0.099 | 2.98 ± 0.092 | 3.36 ± 0.082
KVVKTPGGILRAQHVKK [RPL34A] | 2.76 ± 0.074 | 2.83 ± 0.077 | 2.9 ± 0.064 | 2.71 ± 0.063
KWPEYVRVQRQKKILSI [RPL8A] | 1.2 ± 0.06 | 1.5 ± 0.055 | 1.15 ± 0.098 | 1.23 ± 0.038
KWQTLIEANVTVKTSDD [RPS1A] | 1.42 ± 0.05 | 1.62 ± 0.044 | 1.61 ± 0.078 | 1.67 ± 0.037
KYAQDGAGIERELARIK [RPL3] | 3.54 ± 0.2 | 3.46 ± 0.16 |  | 
KYIGEGSRMVRELFVMA [RPT6] | 2.24 ± 0.063 | 2.11 ± 0.058 | 2.81 ± 0.082 | 1.89 ± 0.07
KYIVKASSGPRYIVGVR [RPT4] | 1.87 ± 0.096 | 2.66 ± 0.13 | 3.4 ± 0.089 | 1.89 ± 0.075
KYMVKGGLSGEESIKIY [UBP6] | 2.32 ± 0.13 | 2.47 ± 0.1 | 2.36 ± 0.093 | 2.67 ± 0.07
KYQKALHYLKKFKHIDD [SRP72] | 2.04 ± 0.1 | 2.96 ± 0.12 | 2.57 ± 0.17 | 2.31 ± 0.14
KYREGQVLFQGLIYSFN [POP1] | 2.46 ± 0.12 | 2.11 ± 0.081 | 2.46 ± 0.065 | 2.42 ± 0.11
KYRPETAAEKKERLTKE [RPL8A] | 3.08 ± 0.081 | 2.76 ± 0.076 | 3.12 ± 0.056 | 3.01 ± 0.067
LAAPQLVQMYIGEGAKL [RPT5] |  |  | 2.48 ± 0.26 | 
LADDLITKMLASDESLL [RPN2] | 1.94 ± 0.11 | 2.29 ± 0.14 | 1.86 ± 0.14 | 
LAEIKKTPLLKQYLSAS [RPL6B] | 1.54 ± 0.038 | 1.55 ± 0.049 | 1.24 ± 0.094 | 1.51 ± 0.036
LAFAKLVHSEYLINGKR [SRP68] | 2.18 ± 0.11 | 2.5 ± 0.056 | 2.15 ± 0.082 | 2.53 ± 0.034
LAFKKNEMLLKRVTKVK [MTW1] | 1.77 ± 0.065 | 2.03 ± 0.052 | 2.31 ± 0.12 | 2.03 ± 0.035
